Data from patent US20120316071A1 (published 2012).

Key:
[1] = target: T1, Recombinant Human DLL4 (delta-like protein 4) (human, UniProt Q9NR61 27-524); test: ELISA on plate-coated DLL4, absorbance at 450 nm, signal minus noise
T1 construct: Bought recombinant protein (R&D Systems Cat#1506-D4/CF); also called rHuman DLL4; Delta-like 4

[2] = target: T1, Recombinant Human DLL4 (delta-like …); test: ECL (MSD) multispot binding assay, immobilized DLL4, 10 nM Fab, signal over blank
[3] = target: T2, Recombinant Human DLL4 (R&D Systems Cat#1506-D4/CF) (human, UniProt Q9NR61 27-524); test: ELISA, DLL4 coated on plate, Fab at 6.67 nM
T2 construct: Bought recombinant protein; also called delta-like protein 4; Delta-like 4

[4] = target: T2, Recombinant Human DLL4 (R&D Systems …); test: ELISA, DLL4 coated on plate, Fab at 0.74 nM
[5] = target: T2, Recombinant Human DLL4 (R&D Systems …); test: ECL (Meso Scale Discovery) multispot binding assay, DLL4 immobilised, Fab at 100 nM
[6] = target: T2, Recombinant Human DLL4 (R&D Systems …); test: ELISA, DLL4 coated on plate, Fab at 20 nM
[7] = target: T2, Recombinant Human DLL4 (R&D Systems …); test: ELISA, DLL4 coated on plate, Fab at 2.22 nM

Binder	ELISA (Signal-Noise) [1]	Signal/Blank [10 nM Fab] [2]	ELISA signal [3]	ELISA signal [4]	ECL signal [5]	ELISA signal [6]	ELISA signal [7]
Fab VH1-46_IGHD6-6*01_IGHJ1*01 S102A/S103P/S104F/H111F S84R & L6_IGKJ1*01 (Fab, V domains shown, Tested as Fab expressed in E. coli; also called APFF S84R) VH: QVQLVQSGAEVKKPGASVKVSCKASGYTFTSYYMHWVRQAPGQGLEWMGIINPSGGSTSYAQKFQGRVTMTRDTSTSTVYMELRSLRSEDTAVYYCAREEYAPFSAEYFQFWGQGTLVTVSS VL: not shown	0.26	433	–	–	–	–	–
Fab VH1-46_IGHD6-6*01_IGHJ1*01 S102A/S103P/S104F/H111F S84T & L6_IGKJ1*01 (Fab, V domains shown, Tested as Fab expressed in E. coli; also called APFF S84T) VH: QVQLVQSGAEVKKPGASVKVSCKASGYTFTSYYMHWVRQAPGQGLEWMGIINPSGGSTSYAQKFQGRVTMTRDTSTSTVYMELTSLRSEDTAVYYCAREEYAPFSAEYFQFWGQGTLVTVSS VL: not shown	0.4	1080	–	–	–	–	–
Fab VH5-51_IGHD5-18*01>3_IGHJ4*01 G100K/G104T (H:KT) & V3-4_IGLJ1*01 (Fab, V domains shown, Fab expressed in E. coli; Plasmid A adds CH1 with His6 and Flag tags to the heavy chain; Plasmid E adds lambda CL to the light chain; also called H:KT & L:wt; KT double mutant) VH: EVQLVQSGAEVKKPGESLKISCKGSGYSFTSYWIGWVRQMPGKGLEWMGIIYPGDSDTRYSPSFQGQVTISADKSISTAYLQWSSLKASDTAMYYCARRKYSYTYDYFDYWGQGTLVTVSS VL: QTVVTQEPSFSVSPGGTVTLTCGLSSGSVSTSYYPSWYQQTPGQAPRTLIYSTNTRSSGVPDRFSGSILGNKAALTITGAQADDESDYYCVLYMGSGISYVFGTGTKVTVL	–	–	0.042	0.019	9360	0.018	0.014
Fab VH5-51_IGHD5-18*01>3_IGHJ4*01 G100K/G104T (H:KT) & V3-4_IGLJ1*01 M94R/S96M (L:RM) (Fab, V domains shown, Fab expressed in E. coli; Plasmid A adds CH1 with His6 and Flag tags to the heavy chain; Plasmid E adds lambda CL to the light chain; also called H:KT & L:RM; G100K/G104T & M94R/S96M) VH: EVQLVQSGAEVKKPGESLKISCKGSGYSFTSYWIGWVRQMPGKGLEWMGIIYPGDSDTRYSPSFQGQVTISADKSISTAYLQWSSLKASDTAMYYCARRKYSYTYDYFDYWGQGTLVTVSS VL: QTVVTQEPSFSVSPGGTVTLTCGLSSGSVSTSYYPSWYQQTPGQAPRTLIYSTNTRSSGVPDRFSGSILGNKAALTITGAQADDESDYYCVLYRGMGISYVFGTGTKVTVL	–	–	0.023	0	–	0.087	0.007
Fab VH5-51_IGHD5-18*01>3_IGHJ4*01 G100K/G104T G24A/S28R/G35V (H:KT ARV) & V3-4_IGLJ1*01 (Fab, V domains shown, Fab expressed in E. coli; Plasmid A adds CH1 with His6 and Flag tags to the heavy chain; Plasmid E adds lambda CL to the light chain; also called H:KT ARV & L:wt; G100K/G104T G24A/S28R/G35V & parent) VH: EVQLVQSGAEVKKPGESLKISCKASGYRFTSYWIVWVRQMPGKGLEWMGIIYPGDSDTRYSPSFQGQVTISADKSISTAYLQWSSLKASDTAMYYCARRKYSYTYDYFDYWGQGTLVTVSS VL: QTVVTQEPSFSVSPGGTVTLTCGLSSGSVSTSYYPSWYQQTPGQAPRTLIYSTNTRSSGVPDRFSGSILGNKAALTITGAQADDESDYYCVLYMGSGISYVFGTGTKVTVL	–	–	0.025	0.008	–	0.054	0.002
Fab VH5-51_IGHD5-18*01>3_IGHJ4*01 G100K/G104T G24L/S28R/G35V (H:KT LRV) & V3-4_IGLJ1*01 (Fab, V domains shown, Fab expressed in E. coli; Plasmid A adds CH1 with His6 and Flag tags to the heavy chain; Plasmid E adds lambda CL to the light chain; also called H:KT LRV & L:wt; G100K/G104T G24L/S28R/G35V & parent) VH: EVQLVQSGAEVKKPGESLKISCKLSGYRFTSYWIVWVRQMPGKGLEWMGIIYPGDSDTRYSPSFQGQVTISADKSISTAYLQWSSLKASDTAMYYCARRKYSYTYDYFDYWGQGTLVTVSS VL: QTVVTQEPSFSVSPGGTVTLTCGLSSGSVSTSYYPSWYQQTPGQAPRTLIYSTNTRSSGVPDRFSGSILGNKAALTITGAQADDESDYYCVLYMGSGISYVFGTGTKVTVL	–	–	0.005	0.006	–	0.027	0
Fab VH5-51_IGHD5-18*01>3_IGHJ4*01 G100K/G104T G24T/S28R/G35V (H:KT TRV) & V3-4_IGLJ1*01 (Fab, V domains shown, Fab expressed in E. coli; Plasmid A adds CH1 with His6 and Flag tags to the heavy chain; Plasmid E adds lambda CL to the light chain; also called H:KT TRV & L:wt; G100K/G104T G24T/S28R/G35V & parent) VH: EVQLVQSGAEVKKPGESLKISCKTSGYRFTSYWIVWVRQMPGKGLEWMGIIYPGDSDTRYSPSFQGQVTISADKSISTAYLQWSSLKASDTAMYYCARRKYSYTYDYFDYWGQGTLVTVSS VL: QTVVTQEPSFSVSPGGTVTLTCGLSSGSVSTSYYPSWYQQTPGQAPRTLIYSTNTRSSGVPDRFSGSILGNKAALTITGAQADDESDYYCVLYMGSGISYVFGTGTKVTVL	–	–	0.023	0.002	–	0.054	0
Fab VH5-51_IGHD5-18*01>3_IGHJ4*01 G100K/G104T G24T/S28R/G35V (H:KT TRV) & V3-4_IGLJ1*01 M94R/S96M (L:RM) (Fab, V domains shown, Fab expressed in E. coli; Plasmid A adds CH1 with His6 and Flag tags to the heavy chain; Plasmid E adds lambda CL to the light chain; also called H:KT TRV & L:RM; G100K/G104T G24T/S28R/G35V & M94R/S96M) VH: EVQLVQSGAEVKKPGESLKISCKTSGYRFTSYWIVWVRQMPGKGLEWMGIIYPGDSDTRYSPSFQGQVTISADKSISTAYLQWSSLKASDTAMYYCARRKYSYTYDYFDYWGQGTLVTVSS VL: QTVVTQEPSFSVSPGGTVTLTCGLSSGSVSTSYYPSWYQQTPGQAPRTLIYSTNTRSSGVPDRFSGSILGNKAALTITGAQADDESDYYCVLYRGMGISYVFGTGTKVTVL	–	–	0.062	0.006	–	0.122	0.028
